In patent US20240010735A1 (EISAI R AND D MANAGEMENT, published 2024):

What was measured:
Test in all cases: ELISA: Fc-His proteins (1 nM) captured on anti-6-His antibody, antibody B 10 µg/mL with human IgG 100 µg/mL, HRP anti-human kappa light chain antibody, OD450 as % of mouse EphA4-Fc-His
[1] = biological target: T1, mouse EphA3 extracellular region-Fc-His protein (mouse; human, UniProt P29319 21-540)
T1 construct: extracellular domain; not shown: Fc region of human IgG1; histidine tag
T1 sequence (looked up): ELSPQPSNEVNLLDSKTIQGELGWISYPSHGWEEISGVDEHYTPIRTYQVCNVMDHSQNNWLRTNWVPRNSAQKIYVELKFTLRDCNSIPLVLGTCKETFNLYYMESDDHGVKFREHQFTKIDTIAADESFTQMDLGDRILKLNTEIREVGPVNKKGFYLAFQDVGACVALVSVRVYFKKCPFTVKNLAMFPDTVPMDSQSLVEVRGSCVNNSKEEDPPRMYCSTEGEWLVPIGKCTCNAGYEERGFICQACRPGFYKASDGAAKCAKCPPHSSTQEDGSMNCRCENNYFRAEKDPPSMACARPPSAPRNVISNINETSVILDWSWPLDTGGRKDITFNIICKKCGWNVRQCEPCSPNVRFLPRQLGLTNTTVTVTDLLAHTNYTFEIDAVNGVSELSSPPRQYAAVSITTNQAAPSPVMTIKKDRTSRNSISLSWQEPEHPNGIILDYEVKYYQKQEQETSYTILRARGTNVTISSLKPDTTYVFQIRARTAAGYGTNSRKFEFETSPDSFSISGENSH
Procedure: (§1) Rabbit anti-6-His antibodies (Bethyl Laboratories) were coated onto the wells of a 96-well plate (Nunc). After incubating at 4° C. overnight, the wells were blocked at room temperature for 1 hour by 1% Block Ace (DS Pharma Biomedical). After washing 3 times with 0.05% Tween 20/PBS (Thermo […]), each Eph receptor of mouse extracellular region-Fc-His protein (final concentration 1 nM) was seeded into each well, and incubated at room temperature for 1 hour. After washing 3 times, human IgG solution (100 μg/mL, Sigma) and antibody B (10 μg/mL) were supplemented to the wells, and incubated at room temperature for 1 hour. Horseradish peroxidase-labeled goat anti-human Kappa Light Chain antibody (IBL) was added, and incubated at room temperature for 1 hour. After washing 3 times, TMBZ (3,3′,5,5′-tetramethylbenzidine, Sigma) solution was added to the wells, and upon confirmation of modest coloring, an equal amount of quenching solution (1 N H₂SO₄, Wako Pure Chemicals) was added to the wells, and absorbance at 450 nm was read by a microplate reader (PerkinElmer).

[2] = biological target: T2, mouse EphB4 extracellular region-Fc-His protein (mouse; human, UniProt P54761 16-539)
T2 construct: extracellular domain; not shown: Fc region of human IgG1; histidine tag
T2 sequence (looked up): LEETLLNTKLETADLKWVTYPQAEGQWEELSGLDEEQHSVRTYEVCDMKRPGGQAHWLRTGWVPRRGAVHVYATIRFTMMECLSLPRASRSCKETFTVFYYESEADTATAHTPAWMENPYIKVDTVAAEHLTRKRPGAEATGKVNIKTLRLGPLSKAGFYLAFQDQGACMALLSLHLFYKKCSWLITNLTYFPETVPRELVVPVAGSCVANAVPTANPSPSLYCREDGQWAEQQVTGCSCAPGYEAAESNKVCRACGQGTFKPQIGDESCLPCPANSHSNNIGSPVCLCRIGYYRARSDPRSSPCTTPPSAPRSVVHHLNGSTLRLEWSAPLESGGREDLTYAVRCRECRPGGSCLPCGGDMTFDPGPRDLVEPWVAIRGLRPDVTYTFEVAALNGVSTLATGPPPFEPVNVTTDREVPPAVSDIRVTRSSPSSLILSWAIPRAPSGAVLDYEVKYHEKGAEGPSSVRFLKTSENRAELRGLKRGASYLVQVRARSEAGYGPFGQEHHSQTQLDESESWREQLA
Procedure: as §1

[3] = biological target: T3, mouse EphB1 extracellular region-Fc-His protein (mouse; human, UniProt Q8CBF3 18-540)
T3 construct: extracellular domain; not shown: Fc region of human IgG1; histidine tag
T3 sequence (looked up): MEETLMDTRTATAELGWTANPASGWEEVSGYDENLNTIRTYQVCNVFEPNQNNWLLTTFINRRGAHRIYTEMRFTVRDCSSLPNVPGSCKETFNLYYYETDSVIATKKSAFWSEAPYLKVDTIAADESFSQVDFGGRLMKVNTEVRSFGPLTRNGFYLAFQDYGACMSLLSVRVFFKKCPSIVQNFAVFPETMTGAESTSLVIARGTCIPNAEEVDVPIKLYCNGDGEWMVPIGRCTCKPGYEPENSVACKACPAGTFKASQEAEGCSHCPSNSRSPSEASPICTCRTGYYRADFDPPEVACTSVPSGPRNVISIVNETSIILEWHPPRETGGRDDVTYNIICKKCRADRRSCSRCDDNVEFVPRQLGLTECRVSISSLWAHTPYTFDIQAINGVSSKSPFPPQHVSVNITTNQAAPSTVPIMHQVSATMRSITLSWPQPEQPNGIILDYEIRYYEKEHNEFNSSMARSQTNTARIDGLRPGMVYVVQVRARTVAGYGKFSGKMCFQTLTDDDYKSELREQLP
Procedure: as §1

Measured: binding result

B1: humanized anti-EphA4 monoclonal antibody (antibody B) (antibody, human IgG2, V domains shown)
VH: QVQLVESGGGVVQPGRSLRLSCAVSGFSLTRFGVHWVRQAPGKGLEWVAVIWRGGSTDYNAAFMSRLTISKDNSKNTVYLQMNSLRAEDTAVYYCAKESLFGVYYDYGYYSMDYWGQGTTVTVSS
VL: DIQMTQSPSSLSASVGDRVTITCRASQEISGYLSWLQQKPGKAPKRLIYAASTLDSGVPSRFSGSRSGTEYTLTISSLQPEDFATYYCLQYASYPLTFGGGTKVEIKR
notes: expressed in Expi293F cells; also called humanized antibody of antibody A; HK2-42 / L1-8
no binding (tested: 10 µg/mL): all assays above
